From PMC12583694, “RNF114 and RNF166 exemplify reader-writer E3 ligases that extend K11 polyubiquitin onto sites of MARUbylation” (The EMBO Journal, 2025)

Molecular target: ADPr-TAMRA (ADPrT)
Assay: fluorescence polarisation
Conditions: read at the highest titration point, about 75 µM RNF114 (left graph); parent: est. 50; read off a plot

Substance	response
RNF114 (wild type, full-length) (from UniProt Q9Y508) R198E	13
RNF114 (wild type, full-length) (from UniProt Q9Y508) W181D; G182E	6
